± gives the uncertainty stated by the source.
B1: Double-stranded RNA-specific adenosine deaminase, residues 296 to 358; numbered along this chain, P55265 (parent)
chain: MAEIKEKICDYLFNVSDSSALNLAKNIGLTKARDINAVLIDMERQGDVYRQGTTPPIWHLTDK

Variants of: B1
Assay: abundance fitness (aPCA) (normalised: wild type 0, dead -1); higher = more abundant; growth selection in yeast, the domain comes from the species named
Conditions: Homo sapiens
In the case of MAEIKEKICDYLFNVSDSSALNLAKNIGLTKARDINAVLIDMERQGDVYRQGTTPCIWHLTDK [P56C], the abundance fitness is reported as -0.511 ± 0.35. In the case of MAEIKEKICDYLFNVSDSSALNLAKNIGLTKARDINAVLIDMERQGDVYRQGTTPVIWHLTDK [P56V], the abundance fitness is reported as -0.099 ± 0.1. MAEITEKICDYLFNVSDSSALNLAKNIGLTKARDINAVLIDMERQGDVYRQGTTPPIWHLTDK [K5T] showed an abundance fitness of -0.601 ± 0.077. Work on MAEIPEKICDYLFNVSDSSALNLAKNIGLTKARDINAVLIDMERQGDVYRQGTTPPIWHLTDK [K5P] yielded an abundance fitness of -0.486 ± 0.069. In the case of MAEIIEKICDYLFNVSDSSALNLAKNIGLTKARDINAVLIDMERQGDVYRQGTTPPIWHLTDK [K5I], the abundance fitness is reported as -0.512 ± 0.081. With MAEIKEKICDYLFNVSDSSALNLAKNIGLTKTRDINAVLIDMERQGDVYRQGTTPPIWHLTDK [A32T] the abundance fitness was -0.018 ± 0.086. Work on MAEIKEKICDYLFNVSDSSALNLAKNIGLTKMRDINAVLIDMERQGDVYRQGTTPPIWHLTDK [A32M] yielded an abundance fitness of 0.088 ± 0.067. With MAEIKEKICDYLFSVSDSSALNLAKNIGLTKARDINAVLIDMERQGDVYRQGTTPPIWHLTDK [N14S] the abundance fitness was 0.017 ± 0.047. MAEIKEKICDYLFNVSDSSALNLAWNIGLTKARDINAVLIDMERQGDVYRQGTTPPIWHLTDK [K25W] showed an abundance fitness of -0.82 ± 0.092. Work on MAEIKEKIMDYLFNVSDSSALNLAKNIGLTKARDINAVLIDMERQGDVYRQGTTPPIWHLTDK [C9M] yielded an abundance fitness of 0.042 ± 0.062. MAEIKEKIIDYLFNVSDSSALNLAKNIGLTKARDINAVLIDMERQGDVYRQGTTPPIWHLTDK [C9I] gave an abundance fitness of 0.338 ± 0.085. MAEIKHKICDYLFNVSDSSALNLAKNIGLTKARDINAVLIDMERQGDVYRQGTTPPIWHLTDK [E6H] gave an abundance fitness of -0.557 ± 0.1. MAEIKEKICDYLFNVSDSSALNLAKNIGLTKARDINAVLIDMERQGDVYRQGTTPPIPHLTDK [W58P] gave an abundance fitness of -0.409 ± 0.097. For MAEIKEKICDYLFNVSDSSALNLAKNIGLTKARDINAVLIDMEKQGDVYRQGTTPPIWHLTDK [R44K], the abundance fitness was 0.067 ± 0.064. Variant MAEIKEKICDYVFNVSDSSALNLAKNIGLTKARDINAVLIDMERQGDVYRQGTTPPIWHLTDK [L12V] has an abundance fitness of -0.669 ± 0.078. For MAEIKEKICDYAFNVSDSSALNLAKNIGLTKARDINAVLIDMERQGDVYRQGTTPPIWHLTDK [L12A], the abundance fitness was -0.481 ± 0.12. In the case of MAERKEKICDYLFNVSDSSALNLAKNIGLTKARDINAVLIDMERQGDVYRQGTTPPIWHLTDK [I4R], the abundance fitness is reported as -0.387 ± 0.043. MAEHKEKICDYLFNVSDSSALNLAKNIGLTKARDINAVLIDMERQGDVYRQGTTPPIWHLTDK [I4H] gave an abundance fitness of -0.227 ± 0.064. In the case of MFEIKEKICDYLFNVSDSSALNLAKNIGLTKARDINAVLIDMERQGDVYRQGTTPPIWHLTDK [A2F], the abundance fitness is reported as -0.471 ± 0.21. MAEIKEKICDYLFNVSDSSALNLLKNIGLTKARDINAVLIDMERQGDVYRQGTTPPIWHLTDK [A24L] gave an abundance fitness of -0.513 ± 0.073. Work on MAEIKEKICDYLFNVSDSSALNLQKNIGLTKARDINAVLIDMERQGDVYRQGTTPPIWHLTDK [A24Q] yielded an abundance fitness of -0.171 ± 0.1. Variant MAEIKEKICDYLFNVSDSSALNLWKNIGLTKARDINAVLIDMERQGDVYRQGTTPPIWHLTDK [A24W] has an abundance fitness of -0.707 ± 0.088. With MAEIKEKICDYLFNVSDSSALNLAKNIGLTKARDINAVLIDMERQGDVYRQGTTPPIWHGTDK [L60G] the abundance fitness was -0.436 ± 0.057. MAEIKEKICDYLFNVSDSSALNLAKNIGLTKARDINAVLIDMERQGDVYRQGTTPPIWHLDDK [T61D] gave an abundance fitness of -0.32 ± 0.12. MAEIKEKICDYLFNVSDSSALNLAKNIGLTKARDINAVLIDMERQGDVYRQGTTPPIWHLEDK [T61E] showed an abundance fitness of -0.483 ± 0.1. Variant MAEIKEKICDYLFNVSDSSALNLAKNIGLTKARDINAVLIDMERQGDVYRSGTTPPIWHLTDK [Q51S] has an abundance fitness of 0.401 ± 0.045. Variant MAEIKEKICDYLFNVSDSSALNLAKNIGLTKARDINAVLIDMERQGDVYRQRTTPPIWHLTDK [G52R] has an abundance fitness of -0.489 ± 0.064. For MAEIKEKICDYLFNVSDSSALNLAKNIGLTKARDINDVLIDMERQGDVYRQGTTPPIWHLTDK [A37D], the abundance fitness was -0.101 ± 0.079. In the case of MAEIKEKICDYLFNVSDSSALNLAKNIGLTKARDINAVLIDMIRQGDVYRQGTTPPIWHLTDK [E43I], the abundance fitness is reported as -1.13 ± 0.19. MAEIKEKICDYLFNVSDSSALNLAKNIGLTKARDINAVYIDMERQGDVYRQGTTPPIWHLTDK [L39Y] gave an abundance fitness of -0.678 ± 0.087. For MAEIKEKICDYLFNVSDSSELNLAKNIGLTKARDINAVLIDMERQGDVYRQGTTPPIWHLTDK [A20E], the abundance fitness was -0.216 ± 0.098. Variant MAEIKEKICDELFNVSDSSALNLAKNIGLTKARDINAVLIDMERQGDVYRQGTTPPIWHLTDK [Y11E] has an abundance fitness of -0.035 ± 0.05. Variant MAEIKEKICQYLFNVSDSSALNLAKNIGLTKARDINAVLIDMERQGDVYRQGTTPPIWHLTDK [D10Q] has an abundance fitness of 0.051 ± 0.058. For MAEIKEKICIYLFNVSDSSALNLAKNIGLTKARDINAVLIDMERQGDVYRQGTTPPIWHLTDK [D10I], the abundance fitness was -0.502 ± 0.16. Variant MAEIKEKICDYLFNVSDSSALNLAKNIFLTKARDINAVLIDMERQGDVYRQGTTPPIWHLTDK [G28F] has an abundance fitness of -0.796 ± 0.16. Work on MAEIKEKICDYLFNVSDSSALNLAKNIDLTKARDINAVLIDMERQGDVYRQGTTPPIWHLTDK [G28D] yielded an abundance fitness of -0.186 ± 0.058. For MAEIKEKICDYLFNVSDSSALNLAKNIGLTKARDINAVLIDMERQGDVYRQGTTPPIWHLTDP [K63P], the abundance fitness was -0.341 ± 0.12. Work on MAEIKEKICDYLFNCSDSSALNLAKNIGLTKARDINAVLIDMERQGDVYRQGTTPPIWHLTDK [V15C] yielded an abundance fitness of -0.365 ± 0.078. Variant MAEIKEKICDYLFNVMDSSALNLAKNIGLTKARDINAVLIDMERQGDVYRQGTTPPIWHLTDK [S16M] has an abundance fitness of -0.379 ± 0.077. With MAEIKEKICDYLFNVSDSSALNLAKNIGITKARDINAVLIDMERQGDVYRQGTTPPIWHLTDK [L29I] the abundance fitness was -0.025 ± 0.04. In the case of MANIKEKICDYLFNVSDSSALNLAKNIGLTKARDINAVLIDMERQGDVYRQGTTPPIWHLTDK [E3N], the abundance fitness is reported as -0.196 ± 0.078. MAEIKEKICDYLFNVSDSSALNLAKNIGLTKARDINAVLIDMERQFDVYRQGTTPPIWHLTDK [G46F] showed an abundance fitness of -1.05 ± 0.22. Variant MAEIKEKICDYLFNVSDSSALNLAKNIGLTKARDINAVLDDMERQGDVYRQGTTPPIWHLTDK [I40D] has an abundance fitness of -0.093 ± 0.062.

— the Human Domainome abundance scans (Beltran et al. 2025)
